Kd data for eight substances are collected here from publication PMC7618375, “Structure and Methyl-lysine Binding Selectivity of the HUSH Complex Subunit MPP8” (Journal of molecular biology, 2024).

For assay [1], the target named is MPP8 chromodomain (CD, residues 55-116) (human) (UniProt Q99549). Briefly: ITC; 750 uM peptide in the syringe titrated into 50 uM MPP8 CD in the cell; 50 mM HEPES pH 7.4, 0.1 M NaCl, 0.5 mM TCEP, 25 °C; single-site model. (Isothermal titration calorimetry measures the heat released or taken up as one component is titrated into another.)
The target of assay [2] is Dnmt3a (Homo sapiens) (UniProt Q9Y6K1). The following applies: cited from earlier work.

One may read the Kd as the constant that tells how readily two partners part at equilibrium.

“ATF7IP N-terminal tail peptide trimethylated at lysine 16” displayed a Kd in assay [1] of 193 nM.
Turning to G9a peptide trimethylated at K185, the Kd in assay [1] stood at 1310 nM.
In assay [1], “GLP peptide residues 199-211 with lysine 205 trimethylated (from UniProt Q9H9B1 199-211)” came in with a Kd of 337 nM.
The same measure, in the same setting: the value for “Histone H3 peptide trimethylated at lysine 9” was 769 nM; that for “Histone H3 peptide trimethylated at lysine 27” was greater than 50000 nM.
In the case of MPP8 chromodomain (from UniProt Q99549), the Kd in assay [2] was 12000 nM.
In assay [1], SETDB1 peptide trimethylated at K1170 yielded a Kd of 1550 nM.
On the same count and under the same terms, the value for SETDB1 peptide trimethylated at K1178 was greater than 50000 nM.
